Paper PMC9877181

Test system: CCCC(=O)Oc1ccc([N+](=O)[O-])cc1
Assay: purified protein
Conditions: 50 mM Tris-HCl pH 8, 10 μM enzyme, no α-CD

EstG (Caulobacter vibrioides NA1000)
Km: 11.2 mM
